This is an account of results in patent US20240156979A1.

The target in this assay is Siglec-specific antibody for Siglec-9 (R&D Systems MAB1139). In words: ForteBio Octet; construct captured on AHC biosensor, antibody titrated; 1:1 fit.

A word on the Kd: it is the equilibrium constant for the complex coming apart. Sig-9-Fc (Fc fusion) returned a Kd of less than 10 nM.
